In US20200283478A1 (Genentech, published 2020):
Bridge positions count the residues as written; N and C are the ends. Square brackets hold non-standard residues; d marks the D form.

Assays:
[1] = molecular target: T1, His-tagged, full-length PCSK9 (human, UniProt Q8NBP7 31-692); assay: TR-FRET competition (PCSK9/EGF(A) assay); competitor EGF(A)-Fc;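 further: proximity signal from anti-His APC on PCSK9 paired with anti-Fc europium on the Fc ligand, read as normalized TR-FRET ratio across compound dilutions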
T1 construct: secreted PCSK9 is autocatalytically cleaved into prodomain and catalytic domain + CRD (from S153), which stay associated; also called His-PCSK9; proprotein convertase subtilisin/kexin type 9; not shown: His tag
T1 sequence (Q8NBP7 31-692 limits assumed): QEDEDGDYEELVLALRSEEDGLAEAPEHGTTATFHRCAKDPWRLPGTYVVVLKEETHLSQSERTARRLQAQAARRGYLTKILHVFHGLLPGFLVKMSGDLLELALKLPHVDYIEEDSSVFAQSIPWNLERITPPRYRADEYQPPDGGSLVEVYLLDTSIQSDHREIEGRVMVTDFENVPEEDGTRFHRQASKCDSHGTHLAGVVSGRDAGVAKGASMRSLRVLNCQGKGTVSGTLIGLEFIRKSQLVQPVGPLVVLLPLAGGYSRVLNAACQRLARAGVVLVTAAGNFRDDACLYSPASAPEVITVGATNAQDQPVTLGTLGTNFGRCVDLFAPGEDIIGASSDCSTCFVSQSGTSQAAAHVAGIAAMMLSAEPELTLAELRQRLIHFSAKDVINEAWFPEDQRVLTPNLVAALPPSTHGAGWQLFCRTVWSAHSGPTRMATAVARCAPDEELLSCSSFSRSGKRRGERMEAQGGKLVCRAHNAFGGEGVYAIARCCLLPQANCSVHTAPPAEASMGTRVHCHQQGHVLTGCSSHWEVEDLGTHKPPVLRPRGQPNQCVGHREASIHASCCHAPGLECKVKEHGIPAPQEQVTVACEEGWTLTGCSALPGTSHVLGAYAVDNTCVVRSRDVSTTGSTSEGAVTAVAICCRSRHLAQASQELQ

[2] = molecular target: T2, His-tagged PCSK9Δhelix (human, UniProt Q8NBP7 31-152; Q8NBP7 168-692); assay: TR-FRET competition (PCSK9Δhelix/Ab20 assay); competitor Ab20
T2 construct: Human PCSK9 M1-Q692 with an engineered TEV site, cut by TEV protease; new N-terminus of the catalytic domain is S-A168; also called His-PCSK9Δhelix; not shown: His tag
T2 sequence (Q8NBP7 31-152, stated change not applied, chain 1 of 2): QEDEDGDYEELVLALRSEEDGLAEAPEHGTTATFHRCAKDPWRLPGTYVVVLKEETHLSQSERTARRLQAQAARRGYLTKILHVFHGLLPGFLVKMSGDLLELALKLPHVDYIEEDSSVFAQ
T2 sequence (Q8NBP7 other isoform, or with tags, fused parts or gaps mutant, chain 2 of 2): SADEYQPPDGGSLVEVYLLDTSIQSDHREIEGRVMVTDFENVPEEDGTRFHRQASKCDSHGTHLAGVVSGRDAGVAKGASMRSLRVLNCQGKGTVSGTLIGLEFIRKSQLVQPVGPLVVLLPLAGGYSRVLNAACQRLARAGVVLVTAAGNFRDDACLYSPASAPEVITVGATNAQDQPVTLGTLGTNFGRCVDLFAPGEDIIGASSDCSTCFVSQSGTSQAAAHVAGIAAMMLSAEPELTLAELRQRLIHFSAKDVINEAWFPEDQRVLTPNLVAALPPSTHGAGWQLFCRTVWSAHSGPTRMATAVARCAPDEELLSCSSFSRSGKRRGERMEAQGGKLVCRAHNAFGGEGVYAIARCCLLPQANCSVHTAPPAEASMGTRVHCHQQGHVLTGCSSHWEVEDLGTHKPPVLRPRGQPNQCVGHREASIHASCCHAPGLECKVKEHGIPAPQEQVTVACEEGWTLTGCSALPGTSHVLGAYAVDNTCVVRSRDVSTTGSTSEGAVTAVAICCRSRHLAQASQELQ

IC50 [1]	IC50 [2]	Binder
> 50 µM	0.699 µM	Ac-CRLPWNLKRIGLPC-NH2 (disulfide 1-14; SMILES CC[C@H](C)[C@@H]1NC(=O)[C@H](CCCNC(=N)N)NC(=O)[C@H](CCCCN)NC(=O)[C@H](CC(C)C)NC(=O)[C@H](CC(N)=O)NC(=O)[C@H](Cc2c[nH]c3ccccc23)NC(=O)[C@@H]2CCCN2C(=O)[C@H](CC(C)C)NC(=O)[C@H](CCCNC(=N)N)NC(=O)[C@@H](NC(C)=O)CSSC[C@@H](C(N)=O)NC(=O)[C@@H]2CCCN2C(=O)[C@H](CC(C)C)NC(=O)CNC1=O) [Compound 67 (Ac-CRLPWNLKRIGLPC-NH2)]
> 50 µM	0.939 µM	Ac-CRLPWNLQRIGLAC-NH2 (disulfide 1-14; SMILES CC[C@H](C)[C@@H]1NC(=O)[C@H](CCCNC(=N)N)NC(=O)[C@H](CCC(N)=O)NC(=O)[C@H](CC(C)C)NC(=O)[C@H](CC(N)=O)NC(=O)[C@H](Cc2c[nH]c3ccccc23)NC(=O)[C@@H]2CCCN2C(=O)[C@H](CC(C)C)NC(=O)[C@H](CCCNC(=N)N)NC(=O)[C@@H](NC(C)=O)CSSC[C@@H](C(N)=O)NC(=O)[C@H](C)NC(=O)[C@H](CC(C)C)NC(=O)CNC1=O) [Compound 68 (Ac-CRLPWNLQRIGLAC-NH2)]
> 50 µM	6.02 µM	Ac-CRLAWNLQRIGLPC-NH2 (disulfide 1-14; SMILES CC[C@H](C)[C@@H]1NC(=O)[C@H](CCCNC(=N)N)NC(=O)[C@H](CCC(N)=O)NC(=O)[C@H](CC(C)C)NC(=O)[C@H](CC(N)=O)NC(=O)[C@H](Cc2c[nH]c3ccccc23)NC(=O)[C@H](C)NC(=O)[C@H](CC(C)C)NC(=O)[C@H](CCCNC(=N)N)NC(=O)[C@@H](NC(C)=O)CSSC[C@@H](C(N)=O)NC(=O)[C@@H]2CCCN2C(=O)[C@H](CC(C)C)NC(=O)CNC1=O) [Compound 77 (Ac-CRLAWNLQRIGLPC-NH2)]
> 50 µM	6.64 µM	Ac-CRLPWNLQRIGAPC-NH2 (disulfide 1-14; SMILES CC[C@H](C)[C@@H]1NC(=O)[C@H](CCCNC(=N)N)NC(=O)[C@H](CCC(N)=O)NC(=O)[C@H](CC(C)C)NC(=O)[C@H](CC(N)=O)NC(=O)[C@H](Cc2c[nH]c3ccccc23)NC(=O)[C@@H]2CCCN2C(=O)[C@H](CC(C)C)NC(=O)[C@H](CCCNC(=N)N)NC(=O)[C@@H](NC(C)=O)CSSC[C@@H](C(N)=O)NC(=O)[C@@H]2CCCN2C(=O)[C@H](C)NC(=O)CNC1=O) [Compound 69 (Ac-CRLPWNLQRIGAPC-NH2)]
> 50 µM	39.6 µM	Ac-CRLPWNLQAIGLPC-NH2 (disulfide 1-14; SMILES CC[C@H](C)[C@@H]1NC(=O)[C@H](C)NC(=O)[C@H](CCC(N)=O)NC(=O)[C@H](CC(C)C)NC(=O)[C@H](CC(N)=O)NC(=O)[C@H](Cc2c[nH]c3ccccc23)NC(=O)[C@@H]2CCCN2C(=O)[C@H](CC(C)C)NC(=O)[C@H](CCCNC(=N)N)NC(=O)[C@@H](NC(C)=O)CSSC[C@@H](C(N)=O)NC(=O)[C@@H]2CCCN2C(=O)[C@H](CC(C)C)NC(=O)CNC1=O) [Compound 72 (Ac-CRLPWNLQAIGLPC-NH2)]
> 50 µM	0.915 µM	Ac-CRLPWNLARIGLPC-NH2 (disulfide 1-14; SMILES CC[C@H](C)[C@@H]1NC(=O)[C@H](CCCNC(=N)N)NC(=O)[C@H](C)NC(=O)[C@H](CC(C)C)NC(=O)[C@H](CC(N)=O)NC(=O)[C@H](Cc2c[nH]c3ccccc23)NC(=O)[C@@H]2CCCN2C(=O)[C@H](CC(C)C)NC(=O)[C@H](CCCNC(=N)N)NC(=O)[C@@H](NC(C)=O)CSSC[C@@H](C(N)=O)NC(=O)[C@@H]2CCCN2C(=O)[C@H](CC(C)C)NC(=O)CNC1=O) [Compound 73 (Ac-CRLPWNLARIGLPC-NH2)]
> 50 µM	1.53 µM	Ac-CALPWNLQRIGLPC-NH2 (disulfide 1-14; SMILES CC[C@H](C)[C@@H]1NC(=O)[C@H](CCCNC(=N)N)NC(=O)[C@H](CCC(N)=O)NC(=O)[C@H](CC(C)C)NC(=O)[C@H](CC(N)=O)NC(=O)[C@H](Cc2c[nH]c3ccccc23)NC(=O)[C@@H]2CCCN2C(=O)[C@H](CC(C)C)NC(=O)[C@H](C)NC(=O)[C@@H](NC(C)=O)CSSC[C@@H](C(N)=O)NC(=O)[C@@H]2CCCN2C(=O)[C@H](CC(C)C)NC(=O)CNC1=O) [Compound 79 (Ac-CALPWNLQRIGLPC-NH2)]
> 50 µM	5.56 µM	Ac-CRAPWNLQRIGLPC-NH2 (disulfide 1-14; SMILES CC[C@H](C)[C@@H]1NC(=O)[C@H](CCCNC(=N)N)NC(=O)[C@H](CCC(N)=O)NC(=O)[C@H](CC(C)C)NC(=O)[C@H](CC(N)=O)NC(=O)[C@H](Cc2c[nH]c3ccccc23)NC(=O)[C@@H]2CCCN2C(=O)[C@H](C)NC(=O)[C@H](CCCNC(=N)N)NC(=O)[C@@H](NC(C)=O)CSSC[C@@H](C(N)=O)NC(=O)[C@@H]2CCCN2C(=O)[C@H](CC(C)C)NC(=O)CNC1=O) [Compound 78 (Ac-CRAPWNLQRIGLPC-NH2)]
> 50 µM	49.5 µM	Ac-CRLPWALQRIGLPC-NH2 (disulfide 1-14; SMILES CC[C@H](C)[C@@H]1NC(=O)[C@H](CCCNC(=N)N)NC(=O)[C@H](CCC(N)=O)NC(=O)[C@H](CC(C)C)NC(=O)[C@H](C)NC(=O)[C@H](Cc2c[nH]c3ccccc23)NC(=O)[C@@H]2CCCN2C(=O)[C@H](CC(C)C)NC(=O)[C@H](CCCNC(=N)N)NC(=O)[C@@H](NC(C)=O)CSSC[C@@H](C(N)=O)NC(=O)[C@@H]2CCCN2C(=O)[C@H](CC(C)C)NC(=O)CNC1=O) [Compound 75 (Ac-CRLPWALQRIGLPC-NH2)]
> 50 µM	0.65 µM	Ac-CRLPWNLQRIGLGC-NH2 (disulfide 1-14; SMILES CC[C@H](C)[C@@H]1NC(=O)[C@H](CCCNC(=N)N)NC(=O)[C@H](CCC(N)=O)NC(=O)[C@H](CC(C)C)NC(=O)[C@H](CC(N)=O)NC(=O)[C@H](Cc2c[nH]c3ccccc23)NC(=O)[C@@H]2CCCN2C(=O)[C@H](CC(C)C)NC(=O)[C@H](CCCNC(=N)N)NC(=O)[C@@H](NC(C)=O)CSSC[C@@H](C(N)=O)NC(=O)CNC(=O)[C@H](CC(C)C)NC(=O)CNC1=O) [Compound 80 (Ac-CRLPWNLQRIGLGC-NH2)]
> 50 µM	49.5 µM	Ac-CRLPWNLQRAGLPC-NH2 (disulfide 1-14; SMILES CC(=O)N[C@H]1CSSC[C@@H](C(N)=O)NC(=O)[C@@H]2CCCN2C(=O)[C@H](CC(C)C)NC(=O)CNC(=O)[C@H](C)NC(=O)[C@H](CCCNC(=N)N)NC(=O)[C@H](CCC(N)=O)NC(=O)[C@H](CC(C)C)NC(=O)[C@H](CC(N)=O)NC(=O)[C@H](Cc2c[nH]c3ccccc23)NC(=O)[C@@H]2CCCN2C(=O)[C@H](CC(C)C)NC(=O)[C@H](CCCNC(=N)N)NC1=O) [Compound 71 (Ac-CRLPWNLQRAGLPC-NH2)]
> 50 µM	28.8 µM	Ac-CRLPWNLQRIGGGC-NH2 (disulfide 1-14; SMILES CC[C@H](C)[C@@H]1NC(=O)[C@H](CCCNC(=N)N)NC(=O)[C@H](CCC(N)=O)NC(=O)[C@H](CC(C)C)NC(=O)[C@H](CC(N)=O)NC(=O)[C@H](Cc2c[nH]c3ccccc23)NC(=O)[C@@H]2CCCN2C(=O)[C@H](CC(C)C)NC(=O)[C@H](CCCNC(=N)N)NC(=O)[C@@H](NC(C)=O)CSSC[C@@H](C(N)=O)NC(=O)CNC(=O)CNC(=O)CNC1=O) [Compound 81 (Ac-CRLPWNLQRIGGGC-NH2)]
> 50 µM	49.5 µM	Ac-CRLPANLQRIGLPC-NH2 (disulfide 1-14; SMILES CC[C@H](C)[C@@H]1NC(=O)[C@H](CCCNC(=N)N)NC(=O)[C@H](CCC(N)=O)NC(=O)[C@H](CC(C)C)NC(=O)[C@H](CC(N)=O)NC(=O)[C@H](C)NC(=O)[C@@H]2CCCN2C(=O)[C@H](CC(C)C)NC(=O)[C@H](CCCNC(=N)N)NC(=O)[C@@H](NC(C)=O)CSSC[C@@H](C(N)=O)NC(=O)[C@@H]2CCCN2C(=O)[C@H](CC(C)C)NC(=O)CNC1=O) [Compound 76 (Ac-CRLPANLQRIGLPC-NH2)]
> 50 µM	49.5 µM	Ac-CRLPWNAQRIGLPC-NH2 (disulfide 1-14; SMILES CC[C@H](C)[C@@H]1NC(=O)[C@H](CCCNC(=N)N)NC(=O)[C@H](CCC(N)=O)NC(=O)[C@H](C)NC(=O)[C@H](CC(N)=O)NC(=O)[C@H](Cc2c[nH]c3ccccc23)NC(=O)[C@@H]2CCCN2C(=O)[C@H](CC(C)C)NC(=O)[C@H](CCCNC(=N)N)NC(=O)[C@@H](NC(C)=O)CSSC[C@@H](C(N)=O)NC(=O)[C@@H]2CCCN2C(=O)[C@H](CC(C)C)NC(=O)CNC1=O) [Compound 74 (Ac-CRLPWNAQRIGLPC-NH2)]
> 50 µM	7.26 µM	Ac-CRLPWNLQRIALPC-NH2 (disulfide 1-14; SMILES CC[C@H](C)[C@@H]1NC(=O)[C@H](CCCNC(=N)N)NC(=O)[C@H](CCC(N)=O)NC(=O)[C@H](CC(C)C)NC(=O)[C@H](CC(N)=O)NC(=O)[C@H](Cc2c[nH]c3ccccc23)NC(=O)[C@@H]2CCCN2C(=O)[C@H](CC(C)C)NC(=O)[C@H](CCCNC(=N)N)NC(=O)[C@@H](NC(C)=O)CSSC[C@@H](C(N)=O)NC(=O)[C@@H]2CCCN2C(=O)[C@H](CC(C)C)NC(=O)[C@H](C)NC1=O) [Compound 70 (Ac-CRLPWNLQRIALPC-NH2)]
> 50 µM	1.3 µM	Ac-CRLPWNLQRIGL[dP]C-NH2 (disulfide 1-14; SMILES CC[C@H](C)[C@@H]1NC(=O)[C@H](CCCNC(=N)N)NC(=O)[C@H](CCC(N)=O)NC(=O)[C@H](CC(C)C)NC(=O)[C@H](CC(N)=O)NC(=O)[C@H](Cc2c[nH]c3ccccc23)NC(=O)[C@@H]2CCCN2C(=O)[C@H](CC(C)C)NC(=O)[C@H](CCCNC(=N)N)NC(=O)[C@@H](NC(C)=O)CSSC[C@@H](C(N)=O)NC(=O)[C@H]2CCCN2C(=O)[C@H](CC(C)C)NC(=O)CNC1=O) [Compound 99 (Ac-CRLPWNLQRIGLpC-NH2)]
